B1: Hairpin Ribozyme (parent)
chain: GUCCUCUUUCACGUGCGCGUGAAAGAGAGAAGUGAACCAGAGAAACACACGUUGUGGUAUAUUACCUGGUA

In this data set the parent is B1. Put plainly: self-cleavage, relative activity (ratio to wild type); higher = more cleavage; co-transcriptional.
Take A30G C48U: the self-cleavage was 0.19.

For A35C U63C, the self-cleavage is 0.0565.

For the variant U8G A64C, the self-cleavage stood at 0.0997. C12A G32C: the self-cleavage stood at 0.0893. Consider G1C G57U, for which the self-cleavage stood at 0.0983. A23U A49U: the self-cleavage came to 0.193.

In the case of G54A A61U, the self-cleavage came out at 0.254. For C10G C48U the value was 0.168; for G1U C16U, 0.0937; for G56C G57U, 0.153. As for C6G G56U, the self-cleavage came to 0.141. Turning to A26G C48A, the self-cleavage worked out at 0.13. For C37U G57A the value was 0.169.

A49U G56U: the self-cleavage is 0.147.

Turning to G19C A36G, the self-cleavage worked out at 0.766. On to U7C A44C, for which the self-cleavage amounted to 0.0427. For C38A U58C the value was 0.181. For C3A A41G the value was 0.7.

With U33A A41G, the self-cleavage amounted to 0.0913.

In the case of C3A G51C, the self-cleavage is 0.615. Take U33A G34U: the self-cleavage amounted to 0.134. Take U14C A30G: the self-cleavage turned out to be 0.116. G1U U67C: the self-cleavage is 0.0702. For the variant G29A A64U, the self-cleavage stood at 0.134.

With A24G C66U, the self-cleavage is 0.403. Regarding C50A U58C, the self-cleavage is 0.144. For G13C A39G the value was 0.186.

On to C3G A64G, for which the self-cleavage is 0.126. Regarding A45U C46G, the self-cleavage is 0.241. On to C10U A35G, for which the self-cleavage was determined as 0.689.

Take G15C C16A: the self-cleavage turned out to be 1.1. For U60C C66A the value was 0.31; for A35G U67A, 0.201; for G1U U60C, 0. With C46G G54U the figure was 0.119; with U14C A64G, 0.568. For U20C U58A the value was 0.673; for A35G A47C, 0.312.

For the variant G13C C66U, the self-cleavage amounted to 0.431. Consider G13U U62C, for which the self-cleavage is 0.291. With G15A U33G the figure was 0.136; with C3U A11G, 0.338.

As to G29A C48U, the self-cleavage came to 0.0646.

In the case of C3G U9A, the self-cleavage was determined as 0.112. Take C16U U55C: the self-cleavage was found to be 0.251. With G51C C66A the figure was 0.184; with A22U U62A, 0.161. Regarding U5C A31U, the self-cleavage was 0.0715.

As for G69C A71C, the self-cleavage came out at 0.609.

In the case of C6G U63A, the self-cleavage is 0.125. In the case of U8A A59C, the self-cleavage came out at 0.165.

Regarding G13C G69A, the self-cleavage came out at 0.214. With A59C C65G the figure was 0.246; with C48G C66A, 0.131; with A11C C65A, 0.896. Take G13C U67C: the self-cleavage was determined as 0.126. For A36G C50G the value was 0.382; for U5C G57U, 0.138; for C10A U58G, 0.592. Consider C3G C50G, for which the self-cleavage was 0.127.

Turning to U7G A39C, the self-cleavage was 0.48.

With C16A G25C, the self-cleavage was 0.499. Regarding G34U U70C, the self-cleavage was found to be 1.43. As for A36C A47G, the self-cleavage came to 0.0823. Regarding C50G C65U, the self-cleavage amounted to 0.0289. Turning to A28G U33G, the self-cleavage was found to be 0.211. For G15U C38G the value was 0.149. For A47U A59C the value was 0.164; for C6U A49U, 0.159. For C37A U60A the value was 0.303; for A30G G34A, 0.164. Regarding A30G G34C, the self-cleavage was determined as 0.79.

As to C4A U55C, the self-cleavage came out at 0.0693. For G25C G34C the value was 0.967. For the variant C10G A41C, the self-cleavage amounted to 0.777. For C16A G51U the value was 0.861; for A47G G57C, 0.159. For A41C G42U the value was 0.231; for U5G G25C, 0.214. With U5C U52G, the self-cleavage was 0.608. On to U5C U52C, for which the self-cleavage came to 0.636. In the case of C12G C38A, the self-cleavage is 0.148. As for G1C U2C, the self-cleavage was found to be 0.233.

Consider U33C G40C, for which the self-cleavage was found to be 0.0896. With G54C G56A the figure was 0.116; with A28U U33C, 0.079. With C16A A22U, the self-cleavage was 0.816.

Consider C4G U62A, for which the self-cleavage was 0.191. With U53C A64C the figure was 0.278; with U5A A61G, 0.0553. With G17C C48U the figure was 0.148; with G57C G69U, 0.0905; with G15C G56A, 0.129. With U5G G68U the figure was 0.156; with G17U G51U, 0.798.

Consider G17C C46A, for which the self-cleavage was found to be 0.113. Regarding C3G C37A, the self-cleavage was 0.162. As for A36G A44C, the self-cleavage was found to be 0.0853. As for U5A U14A, the self-cleavage is 0.164. With C3U C37A the figure was 0.315; with C38G U58A, 0.139; with G1A U60A, 0.188. With A28C G34A the figure was 0.753; with C48U A61G, 0.177; with U9G A24C, 0.318. In the case of C16A A43G, the self-cleavage is 0.118. C4A C10G: the self-cleavage was determined as 0.164.

Regarding U8C U9A, the self-cleavage was 0.266.

With U20A A64G, the self-cleavage was 0.562.

On to A43G G51A, for which the self-cleavage came to 0.0738.

As for G68A A71U, the self-cleavage stood at 0.15. On to G1A A39C, for which the self-cleavage was found to be 0.138. In the case of C3A A71G, the self-cleavage was 0.715.

A11G G17U: the self-cleavage is 0.823. As for C16G G69U, the self-cleavage stood at 0.196. Turning to A35G C66A, the self-cleavage is 0.156.

As to U7C A28C, the self-cleavage stood at 0.367. For U14C C50U the value was 0.265; for A30U A45C, 0.0664. Take C38G U55A: the self-cleavage was 0.288.

For C10G G13U, the self-cleavage was determined as 0.528.

In the case of G27U G51U, the self-cleavage stood at 0.402.

As to U2A G17A, the self-cleavage was 0.274. With A31C G42A the figure was 0.164; with U5C G29U, 0.114. With U33C U62A, the self-cleavage was 0.278. In the case of A30G A35G, the self-cleavage came out at 0.125. As to C16A C65U, the self-cleavage stood at 0.242. For A35U G54U the value was 0.455. For A11C U58A the value was 0.635. With A44C U63C the figure was 0.172; with C4A A23G, 0.209. Consider C38U U63A, for which the self-cleavage came out at 0.141. C3G C10G: the self-cleavage was found to be 0.182.

With U58G U63A, the self-cleavage worked out at 0.149.

Turning to U8A G32U, the self-cleavage was determined as 0.166.

U5A G54A: the self-cleavage is 0.192.

Regarding U53G G54C, the self-cleavage came out at 0.551. With A41U A71C the figure was 1.58; with G34C C38U, 1.28. With C12U A24C the figure was 0.721; with U9G G27U, 0.171; with G27C C50U, 0.0886.

Take G34U U63A: the self-cleavage is 0.243. With C4U G25U the figure was 0.126. In the case of C16G U70C, the self-cleavage worked out at 0.829. For G1A G21A the value was 0.154.

For G17A U70C, the self-cleavage is 0.937. With A43G G56A the figure was 0.0841; with C48G G56U, 0.193; with C4U U55C, 0.093.

Take A44G A71C: the self-cleavage turned out to be 0.143. For G40U A71C, the self-cleavage stood at 0.319. On to G19U G69U, for which the self-cleavage is 0.227. With G1U G68A the figure was 0.124; with G25C G69U, 0.199. For A28U U55A the value was 0.235; for G27C U52G, 0.163; for A11U A41G, 0.495. Turning to U9A A44U, the self-cleavage was 0.109.

Consider A41C U53C, for which the self-cleavage was determined as 0.822. Take C10U A23U: the self-cleavage stood at 0.652. For A31U U67A the value was 0.1; for U9G G32A, 0.128. For C65G U67C the value was 0.183; for A11C U20C, 1.02; for G29U A47G, 0.0517.

Values taken from the RNAGym collection of RNA variant scans (doi:10.7554/elife.80360).
